# Data taken from patent publication US20130202591A1 (ANAPTYSBIO, published 2013).
# Residue numbers refer to the chain shown, from its start.
# B1: APE857-1622/773 (antibody, V domains shown)
# VH: EVQLVESGGGLVQPGGSLRLSCAASGFTFSNHWMNWVRQTPGKGLEWVAAINEDGSEKYYVGSVKVRFTISRDNAKNSLYLQMNSLRVEDTAVYYCVRDYYDILTRDYYDILTDYYIHYWYFDLWGRGTLVTVSS
# VL: not shown
# notes: Human IgG (detected with anti-human IgG)
# B2: APE467-1138/773 (antibody, V domains shown)
# VH: EVQLVESGGGLVQPGGSLRLSCAASGFTFSSHWMSWVRQTPGKGLEWVASIKEDGSEKYYVDSVKVRFTISRDNAKNSLYLQMNSLRAEDTAVYYCARDYYDILTDYYIHYWYFDLWGRGTLVTVSS
# VL: not shown
# notes: as for B1
# B3: APE319-887/773 (antibody, V domains shown)
# VH: B2 VH with S31D, H32Y, S35D, T40A, K52R, V66G
# VL: not shown
# notes: as for B1
# B4: APE320-847/773 (antibody, V domains shown)
# VH: B2 VH with T40A, V66G
# VL: not shown
# notes: as for B1
# B5: APE253-771/773 (antibody, V domains shown)
# VH: B2 VH with T40A, S50N, V66G
# VL: not shown
# notes: Human IgG; also called Well 10
# B6: APE318-878/773 (antibody, V domains shown)
# VH: B2 VH with S31D, H32Y, S35D, T40A, S50N, K52R, V66G
# VL: not shown
# notes: as for B1
# B7: MP4-9 (antibody, V domains shown)
# VH: B2 VH with S31N, H32Y, T40A, S50A, E53Q, V66G
# VL: not shown
# notes: Captured by anti-human Fc
# B8: 887/841 (antibody, V domains shown)
# VH: B2 VH with S31D, H32Y, S35D, T40A, K52R, V66G
# VL: DIQMTQSPSSLSASVGDRVTITCRASQSISSYLNWYQQKPGKAPKLLIYAASSLQSGVPSRFSGSGSGTDFTLTISSLQPEDFAVYYCQQYGSSPLTFGGGTKVEIKR
# notes: Captured by anti-human Fc
# B9: MP4-6 (antibody, V domains shown)
# VH: B2 VH with H32Y, T40A, S50N, K52N, E53Q, D62G, V66G, A97V
# VL: not shown
# notes: Captured by anti-human Fc
# B10: 1134/773 (antibody, V domains shown)
# VH: B2 VH with H32Y, E53Q
# VL: not shown
# notes: Captured by anti-human Fc
# B11: MP4-16 (antibody, V domains shown)
# VH: B2 VH with S31N, H32Y, T40A, S50A, K52N, E53Q, D62G, V66G
# VL: not shown
# notes: Captured by anti-human Fc
# B12: MP4-14 (antibody, V domains shown)
# VH: B2 VH with H32Y, T40A, S50A, K52N, E53Q, V66G
# VL: not shown
# notes: Captured by anti-human Fc
# B13: MP4-23 (antibody, V domains shown)
# VH: B2 VH with H32Y, S35N, T40A, S50A, E53Q, D62G, V66G, A97V
# VL: not shown
# notes: Captured by anti-human Fc
# B14: MP4-11 (antibody, V domains shown)
# VH: B2 VH with S31N, H32Y, T40A, S50N, E53Q, V66G, A97V
# VL: not shown
# notes: Captured by anti-human Fc
# B15: 1142/773 (antibody, V domains shown)
# VH: B2 VH with S31D, H32Y, S35D, T40A, K52R, D62G, V66G, A88V, A97V
# VL: not shown
# notes: Captured by anti-human Fc
# B16: MP4-8 (antibody, V domains shown)
# VH: B2 VH with S31N, H32Y, T40A, S50N, K52N, E53Q, V66G, A97V
# VL: not shown
# notes: Captured by anti-human Fc
# B17: MP4-10 (antibody, V domains shown)
# VH: B2 VH with S31N, H32Y, T40A, S50A, E53Q, D62G, V66G, A97V
# VL: not shown
# notes: Captured by anti-human Fc
# B18: 887/772 (antibody, V domains shown)
# VH: B2 VH with S31D, H32Y, S35D, T40A, K52R, V66G
# VL: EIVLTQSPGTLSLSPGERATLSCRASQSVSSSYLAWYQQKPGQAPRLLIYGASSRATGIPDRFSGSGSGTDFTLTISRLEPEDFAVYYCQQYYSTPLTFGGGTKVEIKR
# notes: Captured by anti-human Fc
# B19: MP4-20 (antibody, V domains shown)
# VH: B2 VH with S31N, H32Y, T40A, S50A, E53Q, D62G, V66G
# VL: not shown
# notes: Captured by anti-human Fc
# B20: 1143/773 (antibody, V domains shown)
# VH: B2 VH with S31N, S35N, T40A, S50G, K52R, V66G
# VL: not shown
# notes: Captured by anti-human Fc
# B21: 1153/773 (antibody, V domains shown)
# VH: B2 VH with T40A
# VL: not shown
# notes: Captured by anti-human Fc
# B22: MP4-17 (antibody, V domains shown)
# VH: B2 VH with S31N, H32Y, T40A, S50N, E53Q, V66G
# VL: not shown
# notes: Captured by anti-human Fc
# B23: 878/772 (antibody, V domains shown)
# VH: B2 VH with S31D, H32Y, S35D, T40A, S50N, K52R, V66G
# VL: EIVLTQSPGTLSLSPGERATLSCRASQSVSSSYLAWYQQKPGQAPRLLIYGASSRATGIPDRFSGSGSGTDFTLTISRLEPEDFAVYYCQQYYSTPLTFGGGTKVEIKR
# notes: Captured by anti-human Fc
# B24: MP4-4 (antibody, V domains shown)
# VH: B2 VH with S31N, H32Y, S35N, T40A, S50A, E53Q, D62G, V66G
# VL: not shown
# notes: Captured by anti-human Fc
# B25: 847/842 (antibody, V domains shown)
# VH: B2 VH with T40A, V66G
# VL: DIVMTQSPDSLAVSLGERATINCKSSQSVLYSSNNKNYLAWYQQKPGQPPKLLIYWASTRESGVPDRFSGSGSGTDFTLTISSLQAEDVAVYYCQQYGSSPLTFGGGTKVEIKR
# notes: Captured by anti-human Fc
# B26: 1129/773 (antibody, V domains shown)
# VH: B2 VH with H32Y, T40A, S50N, E53Q
# VL: not shown
# notes: Captured by anti-human Fc
# B27: 846/773 (antibody, V domains shown)
# VH: B2 VH with S31N, H32S, S35T, T40A, K52N, E53H, Y59H, D62G, V66G, A88V
# VL: not shown
# notes: Captured by anti-human Fc
# B28: 1144/773 (antibody, V domains shown)
# VH: B2 VH with S31N, S35N, T40A, K52R, V66G
# VL: not shown
# notes: Captured by anti-human Fc
# B29: 1139/773 (antibody, V domains shown)
# VH: B2 VH with V66G
# VL: not shown
# notes: Captured by anti-human Fc
# B30: 1102/773 (antibody, V domains shown)
# VH: B2 VH with H32Y, S35D, T40A, S50N, K52R, V66G
# VL: not shown
# notes: Captured by anti-human Fc
# B31: 847/772 (antibody, V domains shown)
# VH: B2 VH with T40A, V66G
# VL: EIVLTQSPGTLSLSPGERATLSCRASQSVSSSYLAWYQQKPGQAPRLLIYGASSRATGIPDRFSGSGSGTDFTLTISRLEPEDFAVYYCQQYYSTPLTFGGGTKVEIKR
# notes: Captured by anti-human Fc
# B32: 1146/773 (antibody, V domains shown)
# VH: B2 VH with S31N, H32Y, S35D, T40A, K52R, D62G, V66G, A88V, A97V
# VL: not shown
# notes: Captured by anti-human Fc
# B33: 878/842 (antibody, V domains shown)
# VH: B2 VH with S31D, H32Y, S35D, T40A, S50N, K52R, V66G
# VL: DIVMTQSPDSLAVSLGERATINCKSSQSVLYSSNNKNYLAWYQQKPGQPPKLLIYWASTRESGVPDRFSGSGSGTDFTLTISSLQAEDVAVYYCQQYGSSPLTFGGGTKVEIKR
# notes: Captured by anti-human Fc
# B34: MP4-5 (antibody, V domains shown)
# VH: B2 VH with S31N, H32Y, S35N, T40A, S50A, E53Q, D62G, V66G, A97V
# VL: not shown
# notes: Captured by anti-human Fc
# B35: MP4-2 (antibody, V domains shown)
# VH: B2 VH with H32Y, T40A, S50A, K52N, E53Q, D62G, V66G, A97V
# VL: not shown
# notes: Captured by anti-human Fc
# B36: MP4-21 (antibody, V domains shown)
# VH: B2 VH with S31N, H32Y, S35N, T40A, S50N, K52N, E53Q, D62G, V66G
# VL: not shown
# notes: Captured by anti-human Fc
# B37: MP4-22 (antibody, V domains shown)
# VH: B2 VH with S31N, H32Y, T40A, S50A, E53Q, V66G, A97V
# VL: not shown
# notes: Captured by anti-human Fc
# B38: MP4-7 (antibody, V domains shown)
# VH: B2 VH with S31N, H32Y, T40A, S50N, K52N, E53Q, D62G, V66G, A97V
# VL: not shown
# notes: Captured by anti-human Fc
# B39: 1137/773 (antibody, V domains shown)
# VH: B2 VH with H32Y, S50N, E53Q, V66G
# VL: not shown
# notes: Captured by anti-human Fc
# B40: 1147/773 (antibody, V domains shown)
# VH: B2 VH with H32Y, S35D, T40A, K52R, V66G
# VL: not shown
# notes: Captured by anti-human Fc
# Target: T1, human IL-17 (human, UniProt Q16552 24-155)
# T1 construct: also called hIL-17; IL-17A
# T1 sequence (Q16552 24-155 limits assumed): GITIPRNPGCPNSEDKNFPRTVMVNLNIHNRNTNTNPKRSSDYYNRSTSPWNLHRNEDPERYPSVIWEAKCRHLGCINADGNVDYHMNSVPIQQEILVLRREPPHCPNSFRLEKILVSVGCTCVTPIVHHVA
# Assay: KINEXA 3000, solution equilibrium, free antibody captured on human IL-17a beads
# Procedure: KINEXA® technology measures the unbound/free receptor molecule in solution phase. Measuring binding events in the solution phase with micro beads for maximized surface area avoids mass transport limitations and mobility effects inherent to methods that measure binding to a solid phase. […] Antibody-antigen solution was then flown over antigen-coupled beads at a rate of 0.25 mL/min. […] In order to achieve the most accurate measurement for each antibody, each “Kd controlled curve” (wherein the antibody concentration is below the Kd) was combined with the “receptor controlled curve” (where antibody concentration is well above the Kd) in N-curve analysis.
row,Kd,Binder
1,0.0048 nM,B1
2,0.374 nM,B2
3,6.1 nM,B3
4,2.5 nM,B4
5,~60 nM,B5
6,14.2 nM,B6

# Target: T1, human IL-17
# Assay: SPR (BIACORE), antibody captured by anti-human Fc, antigen in flow; grade: ++ strong binding, + binding, +/- close to background;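 further: antigen injected at two-fold dilutions from 50 nM over captured antibody at 30 µL/min, dissociation followed for 10 min, kinetics fitted with a 1:1 mass-transport model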
# Source text: BIACORE T100™ is used to determine antibody-antigen binding kinetics and affinity. The technology is based on surface plasmon resonance (SPR), an optical phenomenon that enables detection of label-free interactions in real time within a dextran biosensor matrix. It is therefore suited for measuring rate constants of association (kₒₙ) as well as dissociation (koff). All reagents and materials were purchased from GE Healthcare (Buckinghamshire, United Kingdom). […] 1×HBS-EP+ buffer (of 0.01M HEPES, 0.15M NaCl, 3 mM EDTA, 0.05% Polysorbate, pH 7.6) was used to reconstitute antigen at various concentrations (starting at 50 nM and using two-fold serial dilutions for each concentration). 210 μL of each antigen concentration was injected over captured antibody at a flow rate of 30 μL/min, then allowed to dissociate for 10 minutes. Surface was regenerated with 60 μL of 3M MgCl₂ after each cycle to establish baseline. Association and dissociation kinetic constants (kₐ and kd) were evaluated with “1:1 with mass transport” binding model in the BIACORE™ T100 Evaluation Software. The degree of binding for the BIACORE™ assay was measured as “++” (strong binding), “+” (binding), or “+/−” (close to background).
row,binding result,Binder
1,binds,B7
2,binds,B8
3,binds,B9
4,binds,B10
5,binds,B11
6,binds,B12
7,binds,B13
8,binds,B14
9,binds,B15
10,binds,B16
11,binds,B17
12,binds,B18
13,binds,B19
14,binds,B20
15,binds,B21
16,binds,B22
17,binds,B23

row,binding result,Binder
1,binds,B24
2,binds,B25
3,binds,B26
4,binds,B27
5,binds,B28
6,binds,B29
7,binds,B30
8,binds,B31
9,binds,B32
10,binds,B33
11,binds,B34
12,binds,B35
13,binds,B36
14,binds,B37
15,binds,B38
16,binds,B39
17,binds,B40
